In article doi:10.1101/2025.11.11.687775:

Target: microtubules of primary rat hippocampal neurons (rat (endogenous in primary hippocampal neurons)) (UniProt P68370)

GFP-tagged Tau lacking the microtubule-binding domain (delMTBD-Tau; PRR2-WT, MTBD deleted) (from UniProt P10636-6 1-383) (natural protein)
FRAP recovery plateau in rat neurons: 0.873
